From the supplement of paper PMC9170038

Test system: K4 kissing-loop RNA reporter
Test: apparent KD of K4 kissing-loop reporter; higher = weaker reporter binding
Conditions: Eterna round: R107
Procedure: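 RNA-MaP round R107: designed RNA switches with theophylline, tryptophan, arginine or FMN aptamers are transcribed on-chip within common flanks. They are titrated with a labelled K4 kissing-loop RNA reporter in RNA-MaP buffer (100 mM Tris pH 7.5, 80 mM KCl, 4 mM MgCl2), without ligand or with the indicated ligand. Median apparent KD per design.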

[1] = input ligand: theophylline 20 uM
[2] = input ligand: tryptophan 2.4 mM
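Note: bound reporter read as fluorescence of individual clusters on recovered sequencing chips by microscopy, with normalized cluster intensities fitted with a binding model.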

Row | Sequence | apparent KD of K4 kissing-loop reporter (input ligand: FMN 200 uM) [nM] | apparent KD of K4 kissing-loop reporter (input ligand: arginine 13.2 mM) [nM] | apparent KD of K4 kissing-loop reporter (input ligand: none) [nM] | apparent KD of K4 kissing-loop reporter [1] [nM] | apparent KD of K4 kissing-loop reporter [2] [nM]
1 | ACAUAGGAUGGAAGGAGCGCUCGUCAGUCCUGCGAGUGAUGUUCGUGGGUAAAUAUUCGCGAGCAGGUAGGUCGCCAUCUUGAAA [Vedi] | 109 | 115 | 158 | 177 | 164
2 | GGGAGGAGUGGUGUUGAUUAAGAAGCGGAAGGAGCGCCGAAGAAGGCAGGUAGGUCGCCGGAAUAUAGUGAUGUUAUAUAGAGGG [ExArg.E] | 529 | 323 | 230 | 406 | 252
3 | ACCACCUGUCUGGAUACCAGUCUUCGAGUGAUGUUGGAAGUUAGCCGGUUCUAUUACCUAGACCCUUGGCAGCCAGGAAUUAUAG [theeternabot_exclusion_KL_Theo_B_17] | 1140 | 861 | 1500 | 1130 | 872
4 | UCAGAGAACGAAGGAUAUUGACCUGUUUUAUGCUAUGAGUGAUGUUCUUAGUAUCAGCGAGAUGAUCAAGAAGGUCGGGUUCGAC [theeternabot_sameState_KL_FMN_B_48] | 125 | 174 | 197 | 183 | 152
5 | UGACUGGACUGAAGGAGCGCGCGAGACAAAGUCUCGAACUCUUAGUGAUGUUAAGAAAUAACGCAGGUAGGUCGCAGUCUAGUCU | 138 | 122 | 147 | 133 | 150
6 | AGACUUCACCGAAGGAGCGACGUAGCCUAGUGAUGUUAGGCAAGAGAGAAAUCUCUUAUACGUCAGGUAGGUCGCGGUGAAGUCA [Omei KL Arginine B SS C v2] | 197 | 118 | 162 | 160 | 150
7 | CGCCACAACUGAAGGAGCGCGCCAGUGAUGUUGGACGGCUUCGUCAAGGAAACUGCACCGGUGCAGGUAGGUCGCAGUGCGUGGU [Eranarve] | 186 | 164 | 204 | 162 | 195
8 | AGAUGUUUAGCUCAAAGAACGAAAAUGGAAGGAGCGUGCGAAAGCACAGGUAGGUCGCCAGUGAUGUUGGAACCUGAGCAUCAAA [#SwitchBubble 16 #K4Late] | 316 | 274 | 262 | 244 | 230
9 | GCCUAGCAGGGAAGGAGCGCCAUAAGAAGUAAAGGAGGGAGUUGAGUGAUGUUCAAAAUGUGGCAGGUAGGUCGCCCUGCUAGGC [KL-SSArg B13] | 705 | 388 | 635 | 490 | 507
10 | GGAUAGGAUAGAGGAUAUGGGUUAGGCAAGAAUAACUUGUCUAGUAAAUCCAUGAGGAGUGAUGUUCCAGAAGGCUGUCCUAUCG [MatMod 4 - Jieux - Exclusion - FMN B] | 429 | 125 | 117 | 127 | 98.3
11 | CUCUUCUUUCUUUUAGUGAUGUUAAAUUAGCGAGGACCGGUACGGCCGCCACUCGUAUAGCUGGAAUGACUGUGCGAGGGUUUGU | 960 | 514 | 905 | 522 | 790
12 | AUUUAGACGAGUGAUGUUCGUGAUAUUACAGAGGAUAUGCUUAAAAGCAGAAGGCUGUAUUUAUAUUUGUUAUGUAAUUUUAAAA [JR_ExcFMNA_Sub005] | 79.9 | 95.4 | 78 | 95.5 | 62.7
13 | CAGAUCACAGAGUGAUGUUCUGUGUCCGAAGGAGCGCGCGAGAGCGCAGGUAGGUCGCGGAUACAGUUGACGUACCAUCUAGACA [Arg A Ex t3b] | 306 | 244 | 278 | 246 | 269
14 | AAUAAGGUCGCCGAUACCAGCGCAGGCAGAGCAAAGCUCUGCCUAGUAGUGAUGUUACUGCGCCCUUGGCAGCGGUGGCACGACC [Omei KL Theo B SS C v4] | 863 | 824 | 930 | 397 | 798
15 | AUGACGGGUAGUGAUGUUAUCCACGAUGGGAAGGAUAUCAACCGUGUGAGAAGGUCCUUAUCGGUGCGGCACAUGCAGGUACUAC [theeternabot_sameState_KL_FMN_A_41] | 215 | 264 | 346 | 452 | 268
16 | GAGGUGCUGAUGCGGUGGCCGGUGGUCGUGCGAGGACCGGUACGGCCGCCACUCGCAUGAGUGAUGUUCAUGUGUCGUCGUCGUC [whbob_EX_Tryp_A_t3] | 172 | 104 | 132 | 117 | 172

Row | Sequence | apparent KD of K4 kissing-loop reporter (input ligand: FMN 200 uM) [nM] | apparent KD of K4 kissing-loop reporter (input ligand: arginine 13.2 mM) [nM] | apparent KD of K4 kissing-loop reporter (input ligand: none) [nM] | apparent KD of K4 kissing-loop reporter [1] [nM] | apparent KD of K4 kissing-loop reporter [2] [nM]
17 | UUGAGCCGGACUUAAGUCCGGCUCUGCGAGCGAGGACCGGUACGGCCGCCACUCGGUGCAGUGAUGUUGCAUGGCCGCAAGGCCG [#2 Exclusion - Tryptophan A Attempt #11 (HarryS)] | 269 | 209 | 298 | 231 | 296
18 | AGGCGGCAUAAUUGACUGAAAAGAAAUUAACGAGGACCGGUACGGCCGCCACUCGAACACCAGUGAUGUUGGUAUGGGAUAAUUU [Exclusion Tryptophan A GF 18] | 91.6 | 62.7 | 52.9 | 169 | 47
19 | GCUAUGGUAGGAAGGAGCGCUUACUCGGUCAUAAGAGUGAUGUUCGAGACCGAGUAUUUAUAGCAGGUAGGUCGCCUACUAUAGC [Arginine B K4 6] | 68 | 124 | 2.37 | 199 | 352
20 | AGUAUGUAAUAUGGCAUAUUUAGAACUGAAGGAGCGCCGAAUAAGGCAGGUAGGUCGCGGUUUUAUGAGUGAUGUUCUUGUUUAA [KL-SSArg-A24] | 156 | 125 | 149 | 329 | 111
21 | GCCAGUGAUGUUGGCAUUUCGAGCCAUGAAGGAGCGCACGGAAGUGCAGGUAGGUCGCAUGGUACUUAGGAUAUUACCCUAAGUA [Isterare] | 206 | 177 | 212 | 200 | 161
22 | AACAUUUUCAGAAGGAGCGUGAAUUAUUCAUAAUUAUAUUAUACGAGUGAUGUUCGUAUUUCACAGGUAGGUCGCUGAUAUAGUA [#02 K4 Arginine B Same State] | 94.5 | 127 | 104 | 121 | 93.1
23 | UAUAUAGUGAUGUUAUAUGGGAAGGAGUUACGAGGACCGGUACGGCCGCCACUCGAAACGAGUGAGGAUUUGGGAGAUUGGGUUU [SSTryptA.S] | 333 | 211 | 206 | 208 | 232
24 | AGGAUAUAGUGAUGUUAUAUAAGAAGAAAACGAGGACCGGUACGGCCGCCACUCGAAGCGGCUACUAAGAGGGAAAGAAGAGGAA [ExTryptoA.A] | 174 | 181 | 215 | 294 | 143
25 | UGUGUUGUUGUGAUGUUUGGUGUUGUAGGGCAGGAUAUCGUAGAGGCGAGAAGGGCUUGUGGGCGGUAUGAGUGAUGUUUGUAGG [cfiuxmullin] | 116 | 77.6 | 124 | 143 | 101
26 | CAUAGGAAACUAUGUAUCUCUCUUACUGAAGGAGCGCGUGAAAACGCAGGUAGGUCGCAGAAUUUAAAAGAGAGUGAUGUUCUCU [Ex Arginine A K4 8] | 358 | 253 | 332 | 247 | 301
27 | AAUUCAAACUGAAGGAGCGAGCAUUUUGGAGUGAUGUUCCAAGCGAGUGAUGUUCGCAUAGCUCAGGUAGGUCGCAGUUUGGAUA [Same State Arginie B GF 14] | 143 | 136 | 144 | 143 | 139
28 | UGGAGUUGACGAAAAGUCAACUCCUGAGAAGGAGCGCACGAAAGUGCAGGUAGGUCGCUCUACCAGUGAUGUUGGUACUUAAUAA [#OpenEnded 6] | 92.1 | 170 | 117 | 162 | 84.5
29 | UUAAUAUUGUCGGCCGCCACUGGAUAGUAAUUUGUAUAAUCUAUUUCAAAGUGAUGUUUUGAGUCCAGGACCGGGACAUUUGAUA [JR_Nu_ExcTryptoB_Sub030] | 503 | 363 | 455 | 406 | 297
30 | GCAUGGGUGCUUGCACAAGUGAUGUUUGGGCGAGGACCGGUACGGCCGCCACUCGUACGUUUAGUUAAAAGACAUCAUGCGAGUC [theeternabot_exclusion_KL_Trp_A_11] | 291 | 246 | 356 | 339 | 164
31 | AGACUUCACCGAAGGAGCGACGUGGUCUAGUGAUGUUAGACACGAGAGAAAUCUCGUAUACGUCAGGUAGGUCGCGGUGAAGUCA [Omei KL Arginine B SS C v9] | 147 | 119 | 146 | 117 | 133
32 | GGAGGGAUCUCGGCCGCCACUCAUAAGAAAUGGGCCUCAGAAAUAUAGUGAUGUUAUGUAAAGAAGAGGACCGGGAGAAAGAAGG [ExTryptoB.Da] | 390 | 202 | 324 | 218 | 242
